Source: patent US20090075925A1 (published 2009)

T1: rat APOBEC-1 (endogenous, rat liver nuclear extract and McArdle cells) (rat)
T1 sequence (P38483 1-229, looked up): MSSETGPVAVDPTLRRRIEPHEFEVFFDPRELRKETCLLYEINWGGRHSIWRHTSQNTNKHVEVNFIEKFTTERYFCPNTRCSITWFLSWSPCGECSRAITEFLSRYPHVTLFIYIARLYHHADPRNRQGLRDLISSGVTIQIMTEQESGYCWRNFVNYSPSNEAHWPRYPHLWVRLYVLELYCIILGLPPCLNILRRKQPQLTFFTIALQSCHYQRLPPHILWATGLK

B1: HA epitope-tagged APOBEC-1 stably expressed in McArdle RH7777 cells (enzyme, UniProt P38483 1-229, looked up, not shown: small tags and cut ends)
chain: T1 sequence (P38483 1-229, looked up)
notes: also called HA-tagged APOBEC-1
B2: ACF of nuclear extract treated with calf intestinal alkaline phosphatase (CIAP) (other, rat, UniProt Q923K9-2 1-586, looked up)
chain: MESNHKSGDGLSGTQKEAALRALVQRTGYSLVQENGQRKYGGPPPGWDTTPPERGCEIFIGKLPRDLFEDELIPLCEKIGKIYEMRMMMDFNGNNRGYAFVTFSNKQEAKNAIKQLNNYEIRNGRLLGVCASVDNCRLFVGGIPKTKKREEILSEMKKVTEGVVDVIVYPSAADKTKNRGFAFVEYESHRAAAMARRRLLPGRIQLWGHPIAVDWAEPEVEVDEDTMSSVKILYVRNLMLSTSEEMIEKEFNSIKPGAVERVKKIRDYAFVHFSNREDAVEAMKALNGKVLDGSPIEVTLAKPVDKDSYVRYTRGTGGRNTMLQEYTYPLSHVYDPTTTYLGAPVFYTPQAYAAIPSLHFPATKGHLSNRALIRTPSVRGAAGVRGLGGRGYLAYTGLGRGYQVKGDKRQDKLYDLLPGMELTPMNTISLKPQGVKLAPQILEEICQKNNWGQPVYQLHSAIGQDQRQLFLYKVTIPALASQNPAIHPFTPPKLSAYVDEAKRYAAEHTLQTLGIPTEGGDAGTTAPTATSATVFPGYAVPSATAPVSTAQLKQAVTLGQDLAAYTTYEVYPTFAVTTRGDGYGTF
modifications: phosphates removed by CIAP treatment of the extract

Tests used:
[1] = target: B2; experiment: co-immunoprecipitation with ACF CT antibody from CIAP-treated McArdle nuclear extract, anti-HA western blot, densitometry (FIG. 2A)
Procedure: Control extracts were treated similarly but lacked phosphatase. […] (n=4, standard deviation+/−0.2). […] Data shown is representative of 3 independent experiments. *Statistical significance was determined to be P≦0.01 by unpaired t-test relative to control. […] Quantitation of relative amounts of ACF bound was performed using PhoshorImager scanning densitometry.

[2] = target: T1, rat APOBEC-1 (endogenous, rat liver …); experiment: cell-based or functional assay

fold reduction of APOBEC-1 recovered with immunoprecipitated ACF (CIAP-treated against control nuclear extract) [1] | Binder | fold decrease in in vitro ApoB mRNA editing activity of CIAP-treated nuclear extract (poisoned-primer extension) [2]
3 fold | B1 | 
 | B2 | 2.5 fold
